Results reported in US20120253009A1.
Bridge positions count the residues as written; N and C are the ends. Ends that are not written are not given here.

Target: human mpl receptor (human) (UniProt P40238)
Assay: cell-based or functional assay

Row | Pb EC50 [ng/mL] | Binder
1 | 0.28 | CSSGGPTLREWQQCSRAQ (Fc fusion, part only; not given: Fc-Loop scaffold and insertion site, part only, disulfide 1-14 (inferred); also: inserted into an Fc-Loop, Fc, site and spacers not given here) [Fc-Loop-(SEQ ID NO: 8)]
2 | 0.27 | CSSGGPTLREWQQCQRAQ (Fc fusion, part only; not given: Fc-Loop scaffold and insertion site, part only, disulfide 1-14 (inferred); also: inserted into an Fc-Loop, Fc, site and spacers not given here) [Fc-Loop-(SEQ ID NO: 9)]
3 | 2.31 | CSSGGPTLREWQQCGRAQ (Fc fusion, part only; not given: Fc-Loop scaffold and insertion site, part only, disulfide 1-14 (inferred); also: inserted into an Fc-Loop, Fc, site and spacers not given here) [Fc-Loop-(SEQ ID NO: 10)]
